Reference: patent US20080070298, “Promoter of Synoviolin Gene” (published 2008)

Columns and labels:
Conditions in all cases: label: 32P
[1] = biological target: T1, Ets1 (UniProt P27577 P27577:1-440); assay: EMSA; in vitro translated; supershift
T1 sequence: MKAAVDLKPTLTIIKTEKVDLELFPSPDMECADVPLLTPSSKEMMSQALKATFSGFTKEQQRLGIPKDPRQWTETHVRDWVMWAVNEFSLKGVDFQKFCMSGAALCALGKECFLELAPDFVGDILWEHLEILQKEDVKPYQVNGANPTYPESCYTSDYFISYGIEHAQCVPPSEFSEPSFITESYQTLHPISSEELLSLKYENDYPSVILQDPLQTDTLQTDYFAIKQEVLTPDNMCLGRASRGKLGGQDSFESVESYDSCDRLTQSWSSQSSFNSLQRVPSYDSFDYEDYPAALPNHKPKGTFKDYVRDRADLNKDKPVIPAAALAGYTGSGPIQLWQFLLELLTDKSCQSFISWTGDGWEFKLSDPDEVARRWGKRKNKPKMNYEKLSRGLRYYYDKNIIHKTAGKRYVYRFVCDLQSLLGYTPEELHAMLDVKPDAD
Method: (§1) Next, T4 […] kinase, buffer andy γ³²P were mixed and the mixture was reacted for 30 minutes at room temperature. The reaction solution was passed through a Micro Spin G-25 column (Amersham Pharmacia Biotech), and the collected column fraction was centrifuged to obtain labeled probes. Those having radioactivity of 30000 cpm or more per 1 µl were used.
(§2) 10 μg of protein was mixed with reaction buffer and probe, and reacted for 30 minutes at room temperature. For purposes of supershift, they were reacted for 1 hour at 4° C. before being reacted with the probe. The reaction solution was electrophoresed for about 3 hours at 100v, 50 mA in non-denatured gel. The gel was dried, and analyzed by autoradiography using a Fujii BAS2000.

[2] = biological target: T2, Fli-1 (UniProt P26323 P26323:1-452); assay: EMSA; in vitro translated; supershift
T2 sequence: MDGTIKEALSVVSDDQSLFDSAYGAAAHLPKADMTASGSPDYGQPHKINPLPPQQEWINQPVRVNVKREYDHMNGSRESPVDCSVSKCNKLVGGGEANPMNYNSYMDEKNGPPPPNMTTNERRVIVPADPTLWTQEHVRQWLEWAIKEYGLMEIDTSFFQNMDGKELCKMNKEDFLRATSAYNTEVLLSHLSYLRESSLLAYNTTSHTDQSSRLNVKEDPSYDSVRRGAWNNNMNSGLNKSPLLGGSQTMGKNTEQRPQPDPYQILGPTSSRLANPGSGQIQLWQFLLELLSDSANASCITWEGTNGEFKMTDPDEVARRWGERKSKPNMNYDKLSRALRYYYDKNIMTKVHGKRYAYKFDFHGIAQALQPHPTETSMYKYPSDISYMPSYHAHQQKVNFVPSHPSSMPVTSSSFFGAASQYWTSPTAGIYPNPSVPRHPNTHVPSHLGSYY
Method: as §1, §2

[3] = biological target: T3, GABPα (UniProt Q00422 Q00422:1-454); assay: EMSA; in vitro translated; supershift
T3 sequence: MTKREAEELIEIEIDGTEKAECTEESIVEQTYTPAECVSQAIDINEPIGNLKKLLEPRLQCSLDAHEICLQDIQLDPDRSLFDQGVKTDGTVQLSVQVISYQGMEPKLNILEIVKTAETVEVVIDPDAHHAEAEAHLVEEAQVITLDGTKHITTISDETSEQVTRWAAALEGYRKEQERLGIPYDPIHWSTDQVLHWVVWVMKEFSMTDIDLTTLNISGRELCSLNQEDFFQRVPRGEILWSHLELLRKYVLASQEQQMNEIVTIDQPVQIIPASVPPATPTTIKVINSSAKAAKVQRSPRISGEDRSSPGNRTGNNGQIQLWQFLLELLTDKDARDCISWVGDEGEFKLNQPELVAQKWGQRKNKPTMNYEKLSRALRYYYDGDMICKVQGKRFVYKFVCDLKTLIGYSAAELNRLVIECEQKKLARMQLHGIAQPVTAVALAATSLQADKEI
Method: as §1, §2

[4] = biological target: GABPα/GABPβ complex (UniProt Q00422;Q00420 Q00422:1-454,Q00420:2-383); assay: EMSA; new complex bands on adding GABPβ to GABPα; GABPβ antibody interferes with complex a
Sequence of GABPα/GABPβ complex (Q00420 2-383, one chain of several): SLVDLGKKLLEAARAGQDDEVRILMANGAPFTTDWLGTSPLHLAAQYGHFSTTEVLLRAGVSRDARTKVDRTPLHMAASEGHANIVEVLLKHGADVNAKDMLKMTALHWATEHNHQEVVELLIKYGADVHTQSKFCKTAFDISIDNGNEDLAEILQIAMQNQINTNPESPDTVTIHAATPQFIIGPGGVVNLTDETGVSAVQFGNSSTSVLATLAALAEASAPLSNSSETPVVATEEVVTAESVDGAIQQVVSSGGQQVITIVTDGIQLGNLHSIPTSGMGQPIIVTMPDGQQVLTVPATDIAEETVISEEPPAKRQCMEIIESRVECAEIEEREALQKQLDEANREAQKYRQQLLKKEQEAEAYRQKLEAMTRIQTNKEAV
Method: as §1, §2

Measured: binding result

B1: EBS WT (-85 to -70) (dsDNA)
DNA 1: GCGCCGCCGGAAGTGA
DNA 2: TCACTTCCGGCGGCGC
binds: all assays above
